Test results from FireProtDB (doi:10.1371/journal.ppat.1004158).

B1: Heterokaryon incompatibility protein s, Q03689 (parent)
chain: MSEPFGIVAGALNVAGLFNNCVDCFEYVQLGRPFGRDYERCQLRLDIAKARLSRWGEAVKINDDPRFHSDAPTDKSVQLAKSIVEEILLLFESAQKTSKRYELVADQQDLVVFEDKDMKPIGRALHRRLNDLVSRRQKQTSLAKKTAWALYDGKSLEKIVDQVARFVDELEKAFPIEAVCHKLAEIEIEEVEDEASLTILKDAAGGIDAAMSDAAAQKIDAIVGRNSAKDIRTEERARVQLGNVVTAAALHGGIRISDQTTNSVETVVGKGESRVLIGNEYGGKGFWDN

Variants of: B1
Conditions: Podospora anserina; pH 7.5; 25 °C; GdnHCl; optical density; structure 2KJ3; whole UniProt chain shown

Row | Variant | ddG of mutation (higher = less stable) [kcal/mol] | unfolding free energy [kcal/mol]
1 | MSEPFGIVAGALNVAGLFNNCVDCFEYVQLGRPFGRDYERCQLRLDIAKARLSRWGEAVKINDDPRFHSDAPTDKSVQLAKSIVEEILLLFESAQKTSKRYELVADQQDLVVFEDKDMKPIGRALHRRLNDLVSRRQKQTSLAKKTAWALYDGKSLEKIVDQVARFVDELEKAFPIEAVCHKLAEIEIEEVEDEASLTILKDAAGGIDAAMSDAAAQKIDAIVGRNSAKDIRTEERARVQLGNVVTAAALHGGIRISDQTTNSAETVVGKGESRVLIGNEYGGKGFWDN [V264A] | -1 | 4
2 | MSEPFGIVAGALNVAGLFNNCVDCFEYVQLGRPFGRDYERCQLRLDIAKARLSRWGEAVKINDDPRFHSDAPTDKSVQLAKSIVEEILLLFESAQKTSKRYELVADQQDLVVFEDKDMKPIGRALHRRLNDLVSRRQKQTSLAKKTAWALYDGKSLEKIVDQVARFVDELEKAFPIEAVCHKLAEIEIEEVEDEASLTILKDAAGGIDAAMSDAAAQKIDAIVGRNSAKDIRTEERARVQAGNVVTAAALHGGIRISDQTTNSVETVVGKGESRVLIGNEYGGKGFWDN [L241A] | -1 | 3.9
3 | MSEPFGIVAGALNVAGLFNNCVDCFEYVQLGRPFGRDYERCQLRLDIAKARLSRWGEAVKINDDPRFHSDAPTDKSVQLAKSIVEEILLLFESAQKTSKRYELVADQQDLVVFEDKDMKPIGRALHRRLNDLVSRRQKQTSLAKKTAWALYDGKSLEKIVDQVARFVDELEKAFPIEAVCHKLAEIEIEEVEDEASLTILKDAAGGIDAAMSDAAAQKIDAIVGRNSAKDIRTEERARVQLGNVVTAAALHGGIRISDQTTNSVETVVGKGEARVLIGNEYGGKGFWDN [S273A] | -1.4 | 4.3
4 | MSEPFGIVAGALNVAGLFNNCVDCFEYVQLGRPFGRDYERCQLRLDIAKARLSRWGEAVKINDDPRFHSDAPTDKSVQLAKSIVEEILLLFESAQKTSKRYELVADQQDLVVFEDKDMKPIGRALHRRLNDLVSRRQKQTSLAKKTAWALYDGKSLEKIVDQVARFVDELEKAFPIEAVCHKLAEIEIEEVEDEASLTILKDAAGGIDAAMSDAAAQKIDAIVGRNSAKDIRTEERARVQLGNVVTAAALHGGIRISDQTTNSVETVVGKGESRVLIGNEYGGKGFWAN [D288A] | -1.2 | 4.1
5 | MSEPFGIVAGALNVAGLFNNCVDCFEYVQLGRPFGRDYERCQLRLDIAKARLSRWGEAVKINDDPRFHSDAPTDKSVQLAKSIVEEILLLFESAQKTSKRYELVADQQDLVVFEDKDMKPIGRALHRRLNDLVSRRQKQTSLAKKTAWALYDGKSLEKIVDQVARFVDELEKAFPIEAVCHKLAEIEIEEVEDEASLTILKDAAGGIDAAMSDAAAQKIDAIVGRNSAKDIRTEERARVQLGNVVTAAALHGGIRISDQTTNSVETVVGKGASRVLIGNEYGGKGFWDN [E272A] | -1.9 | 4.8
6 | MSEPFGIVAGALNVAGLFNNCVDCFEYVQLGRPFGRDYERCQLRLDIAKARLSRWGEAVKINDDPRFHSDAPTDKSVQLAKSIVEEILLLFESAQKTSKRYELVADQQDLVVFEDKDMKPIGRALHRRLNDLVSRRQKQTSLAKKTAWALYDGKSLEKIVDQVARFVDELEKAFPIEAVCHKLAEIEIEEVEDEASLTILKDAAGGIDAAMSDAAAQKIDAIVGRNSAKDIRTEERARAQLGNVVTAAALHGGIRISDQTTNSVETVVGKGESRVLIGNEYGGKGFWDN [V239A] | -1 | 3.9
7 | MSEPFGIVAGALNVAGLFNNCVDCFEYVQLGRPFGRDYERCQLRLDIAKARLSRWGEAVKINDDPRFHSDAPTDKSVQLAKSIVEEILLLFESAQKTSKRYELVADQQDLVVFEDKDMKPIGRALHRRLNDLVSRRQKQTSLAKKTAWALYDGKSLEKIVDQVARFVDELEKAFPIEAVCHKLAEIEIEEVEDEASLTILKDAAGGIDAAMSDAAAQKIDAIVGRNSAKDIRTEERARVQLGNVVTAAALHGGIRISDQTTNSVETAVGKGESRVLIGNEYGGKGFWDN [V267A] | -0.2 | 2.9
8 | MSEPFGIVAGALNVAGLFNNCVDCFEYVQLGRPFGRDYERCQLRLDIAKARLSRWGEAVKINDDPRFHSDAPTDKSVQLAKSIVEEILLLFESAQKTSKRYELVADQQDLVVFEDKDMKPIGRALHRRLNDLVSRRQKQTSLAKKTAWALYDGKSLEKIVDQVARFVDELEKAFPIEAVCHKLAEIEIEEVEDEASLTILKDAAGGIDAAMSDAAAQKIDAIVGRNSAADIRTEERARVQLGNVVTAAALHGGIRISDQTTNSVETVVGKGESRVLIGNEYGGKGFWDN [K229A] | -1.5 | 4.4
9 | MSEPFGIVAGALNVAGLFNNCVDCFEYVQLGRPFGRDYERCQLRLDIAKARLSRWGEAVKINDDPRFHSDAPTDKSVQLAKSIVEEILLLFESAQKTSKRYELVADQQDLVVFEDKDMKPIGRALHRRLNDLVSRRQKQTSLAKKTAWALYDGKSLEKIVDQVARFVDELEKAFPIEAVCHKLAEIEIEEVEDEASLTILKDAAGGIDAAMSDAAAQKIDAIVGRNSAKDIRTEERARVQLGNVVTAAALHGGIRISDQTTNSVETVVGKGESRVLIANEYGGKGFWDN [G278A] | 0.8 | 2.5
